IC50 data for eight substances are collected here from patent publication US7144983.

In general, IC50 refers to the concentration that gives 50% inhibition.

Chain of trkA + p75 receptors on rat PC12 pheochromocytoma cells (rat) (P35739 33-799, chain 1 of 2): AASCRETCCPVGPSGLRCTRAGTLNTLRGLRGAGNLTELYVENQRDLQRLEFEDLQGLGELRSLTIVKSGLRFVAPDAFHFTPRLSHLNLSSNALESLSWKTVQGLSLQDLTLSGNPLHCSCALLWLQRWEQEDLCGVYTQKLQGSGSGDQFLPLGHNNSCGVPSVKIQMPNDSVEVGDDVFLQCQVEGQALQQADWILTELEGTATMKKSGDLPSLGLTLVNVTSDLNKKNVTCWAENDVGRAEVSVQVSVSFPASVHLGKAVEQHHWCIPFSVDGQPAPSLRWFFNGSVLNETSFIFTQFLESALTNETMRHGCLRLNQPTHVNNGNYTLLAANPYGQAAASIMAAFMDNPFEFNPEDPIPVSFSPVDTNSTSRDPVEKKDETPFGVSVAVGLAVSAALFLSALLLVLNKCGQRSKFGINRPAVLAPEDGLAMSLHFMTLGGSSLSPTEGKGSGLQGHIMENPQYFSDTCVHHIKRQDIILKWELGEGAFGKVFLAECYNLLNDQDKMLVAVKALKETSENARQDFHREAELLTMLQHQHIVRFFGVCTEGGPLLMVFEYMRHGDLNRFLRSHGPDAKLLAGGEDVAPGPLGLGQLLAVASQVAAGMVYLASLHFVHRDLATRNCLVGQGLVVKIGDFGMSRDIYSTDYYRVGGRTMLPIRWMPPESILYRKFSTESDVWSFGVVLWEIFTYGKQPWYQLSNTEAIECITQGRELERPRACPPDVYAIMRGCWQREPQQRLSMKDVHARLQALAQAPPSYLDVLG
Chain of trkA + p75 receptors on rat PC12 pheochromocytoma cells (rat) (P07174 30-425, chain 2 of 2, further chain): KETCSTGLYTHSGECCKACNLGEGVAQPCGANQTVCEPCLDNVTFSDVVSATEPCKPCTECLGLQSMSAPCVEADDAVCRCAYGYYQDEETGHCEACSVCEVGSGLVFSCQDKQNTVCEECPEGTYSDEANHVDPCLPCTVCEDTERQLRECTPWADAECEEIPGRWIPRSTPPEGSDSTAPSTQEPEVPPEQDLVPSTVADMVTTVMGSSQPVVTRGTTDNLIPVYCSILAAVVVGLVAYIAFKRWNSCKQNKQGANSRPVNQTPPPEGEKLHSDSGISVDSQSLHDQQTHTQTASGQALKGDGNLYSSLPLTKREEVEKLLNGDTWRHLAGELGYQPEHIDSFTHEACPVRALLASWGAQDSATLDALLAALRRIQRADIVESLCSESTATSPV

The assay concerns the target trkA + p75 receptors on rat PC12 pheochromocytoma cells (rat) (UniProt P35739). Nature of the assay: 125I-hNGF displacement, PC12 cells (trkA+p75), 4 C.
As for “hNGF (1-118) (from UniProt P01138 122-239) (ligand)”, the IC50 was 0.05 nM.

As to “hNGF (6-118) (from UniProt P01138 127-239) (ligand)”, the IC50 turned out to be 0.13 nM.

As for “hNGF (10-118) (from UniProt P01138 131-239) (ligand)”, the IC50 was found to be 4.1 nM.

For the substance “hNGF Mut 1 (H4A) (from UniProt P01138 122-241) (ligand)”, the half-inhibitory concentration (IC50) came to 0.18 nM.

Turning to “hNGF Mut 2 (H4D) (from UniProt P01138 122-241) (ligand)”, the IC50 stood at 0.43 nM.

On to “hNGF Mut 3 (R9A) (from UniProt P01138 122-241) (ligand)”, for which the IC50 amounted to 0.18 nM.

Take “hNGF Mut 4 (H4A, H8A, R9A) (from UniProt P01138 122-241) (ligand)”: the concentration for half-maximal inhibition (IC50) is 0.39 nM.

As for “mNGF (1-118) (from UniProt P01139 122-239) (ligand)”, the IC50 was determined as 0.06 nM.
